Measurements as given in paper PMC2978286 (Journal of cardiovascular pharmacology, 2010).

Target: β2AR-YFP (UniProt P07550 1-413)
Assay: FRET or BRET

B1: CXCR4-RLuc (receptor, UniProt P61073 1-352, looked up)
chain: MEGISIYTSDNYTEEMGSGDYDSMKEPCFREENANFNKIFLPTIYSIIFLTGIVGNGLVILVMGYQKKLRSMTDKYRLHLSVADLLFVITLPFWAVDAVANWYFGNFLCKAVHVIYTVNLYSSVLILAFISLDRYLAIVHATNSQRPRKLLAEKVVYVGVWIPALLLTIPDFIFANVSEADDRYICDRFYPNDLWVVVFQFQHIMVGLILPGIVILSCYCIIISKLSHSKGHQKRKALKTTVILILAFFACWLPYYIGISIDSFILLEIIKQGCEFENTVHKWISITEALAFFHCCLNPILYAFLGAKFKTSAQHALTSVSRGSSLKILSKGKRGGHSSVSTESESSSFHSS
Question: B1 was tested. Which “BRET ratio (basal)” value did it give?
Answer: 0.23

Question: What about the “BRET ratio (with ISO and SDF-1)” value of the same binder?
Answer: 0.42
